Assays:
[1] = molecular target: T1, canine PD-1/PD-L1 binding (Canis lupus familiaris, UniProt A0A8I3P7C4); test: Canine PD-1/PD-L1 binding inhibition ELISA (cPD-1-Ig immobilized, biotinylated cPD-L1-Ig); conditions: antibody 0, 2.5, 5 and 10 μg/ml
T1 construct: made in house; host or cells: Expi293F
T1 sequence (A0A8I3P7C4 19-237): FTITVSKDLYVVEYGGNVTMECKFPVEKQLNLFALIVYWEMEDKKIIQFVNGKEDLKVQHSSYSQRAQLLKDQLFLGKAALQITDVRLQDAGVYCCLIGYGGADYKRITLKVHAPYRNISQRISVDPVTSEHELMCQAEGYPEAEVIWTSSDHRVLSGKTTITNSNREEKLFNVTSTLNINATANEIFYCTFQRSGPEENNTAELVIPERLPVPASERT
Protocol: Briefly, canine PD-1-Ig (prepared in 2.4 above) was immobilized on flat bottomed 96-well plates and blocked with 1% BSA and 0.05% Tween 20-containing PBS. […] The binding of cPD-L1-Ig to cPD-1-Ig was measured by color reaction using Neutravidin-HRP (Thermo Fisher Scientific) and TMB one component substrate (Bethyl Laboratories).
Briefly, heavy chain and light chain variable region genes were identified from hybridomas producing rat anti-bovine PD-L1 monoclonal antibodies 4G12 and 6G7. Further, the heavy chain and light chain variable region genes of the above rat antibodies were linked to the constant region of heavy chain IgG4 and the constant region of light chain Lambda of a known canine antibody, respectively, to prepare nucleotide sequences, followed by codon optimization (SEQ ID NOS: 9 and 10 (amino acid sequences), SEQ ID NOS: 19 and 20 (nucleotide sequences after codon optimization). Then, synthesis of genes was performed so that NotI restriction enzyme recognition site. KOZAK sequence, chimeric antibody's light chain sequence, poly-A addition signal sequence (PABGH), promoter sequence (PCMV), SacI restriction enzyme recognition site, intron sequence (INRBG), KOZAK sequence, chimeric antibody's heavy chain sequence and XbaI restriction enzyme recognition site would be located in this order. […]

[2] = test system: canine CD80/PD-L1 binding; test: Canine CD80/PD-L1 binding inhibition ELISA (cCD80-Ig immobilized, cPD-L1-Ig); conditions: antibody 0, 2.5, 5 and 10 μg/ml
Protocol: Using the canine PD-1-Ig, PD-L1-Ig and CD80-Ig (described above), anti-PD-L1 antibody was tested for its ability to inhibit canine PD-1/PD-L1 binding and CD80/PD-L1 binding. Briefly, canine PD-1-Ig or CD80-Ig was immobilized on flat-bottom 96-well plates.

canine PBMCs = test: Canine immune cell activation: SEB-stimulated PBMCs, cytokine ELISA and EdU uptake; format: cell-based; conditions: SEB stimulation
oral melanoma = test: Clinical trials in dogs with oral melanoma (Clinical Trials 1, 3, 4); format: in vivo, dog
Protocol: Briefly, tumor tissue samples fixed with formaldehyde and embedded in paraffin were sliced into 4 μm thick sections with a microtome, attached to and dried on silane-coated slide glass (Matsunami Glass) and deparaffinized with xylene/alcohol. While the resultant sections were soaked in citrate buffer [citric acid (Wako Pure Chemical) 0.37 g, trisodium citrate dihydrate (Kishida Chemical) 2.4 g, distilled water 1000 ml], antigen retrieval treatment was performed for 10 min with microwave, followed by staining using a Nichirei automatic immuno-staining device. As pretreatment, sample sections were soaked in 0.3% hydrogen peroxide-containing methanol solution at room temperature for 15 min and washed with PBS. Then, anti-bovine PD-L1 monoclonal antibody was added and reaction was conducted at room temperature for 30 min. After washing with PBS, histofine simple stain MAX-PO (Rat) (Nichirei Bioscience) was added and reaction was carried at room temperature for 30 min, followed by coloring with 3,3′-diaminobenzidine tetrahydrocholride and observation with a light microscope. Dogs with oral melanoma or undifferentiated sarcoma in which tumor cells were PD-L1 positive were used in the following inoculation test (clinical trial).
With respect to the rat-canine chimeric anti-PD-L1 antibody c4G12 to be inoculated into dogs in the clinical trial, the culture supernatant obtained by the procedures described in 2.8 above was purified by affinity chromatography using MabSelect SuRe LX (GE Healthcare) and then by hydroxyapatite chromatography using BioScale CHT20-I prepacked column (Bio-Rad) in order to remove contaminants and polymeric proteins. Aggregate-containing fractions were further purified by anion exchange chromatography using HiScreen Q-Sepharose HP prepacked column (GE Healthcare).
(1) Safety Test: The established rat-canine chimeric anti-PD-L1 antibody c4G12 was administered intravenously into a dog (beagle, spayed female, 13-year-old, about 10 kg in body weight) at 2 mg/kg, every 2 weeks, 3 times in total. […] (2) Clinical Trial 1: The established rat-canine chimeric anti-PD-L1 antibody c4G12 was administered intravenously into a PD-L1 positive dog with relapsed oral melanoma (FIG. 9A) (miniature dachshund, male, 11-year-old, about 7.5 kg in body weight) at 2 mg/kg or 5 mg/kg, every 2 weeks, 22 times in total.

B1: c4G12: rat-canine chimeric anti-PD-L1 antibody, 4G12 variable regions, canine IgG-D/Lambda constant regions; light chain SEQ ID NO: 9, heavy chain SEQ ID NO: 10 (antibody)
heavy: MGWSQIILFLVAAATCVHSQVQLQQSGAELVKPGSSVKISCKASGYTFTSNFMHWVKQQPGNGLEWIGWIYPEYGNTKYNQKFDGKATLTADKSSSTAYMQLSSLTSEDSAVYFCASEEAVISLVYWGQGTLVTVSSASTTAPSVFPLAPSCGSTSGSTVALACLVSGYFPEPVTVSWNSGSLTSGVHTFPSVLQSSGLYSLSSTVTVPSSRWPSETFTCNVVHPASNTKVDKPVPKESTCKCISPCPVPESLGGPSVFIFPPKPKDILRITRTPEITCVVLDLGREDPEVQISWFVDGKEVHTAKTQPREQQFNSTYRVVSVLPIEHQDWLTGKEFKCRVNHIGLPSPIERTISKARGQAHQPSVYVLPPSPKELSSSDTVTLTCLIKDFFPPEIDVEWQSNGQPEPESKYHTTAPQLDEDGSYFLYSKLSVDKSRWQQGDTFTCAVMHEALQNHYTDLSLSHSPGK
light: MESQTHVLISLLLSVSGTYGDIAITQSPSSVAVSVGETVTLSCKSSQSLLYSENQKDYLGWYQQKPGQTPKPLIYWATNRHTGVPDRFTGSGSGTDFTLIISSVQAEDLADYYCGQYLVYPFTFGPGTKLELKQPKASPSVTLFPPSSEELGANKATLVCLISDFYPSGVTVAWKASGSPVTQGVETTKPSKQSNNKYAASSYLSLTPDKWKSHSSFSCLVTHEGSTVEKKVAPAECS
modifications: chimeric H chain; chimeric L chain
Inhibitory activity against canine PD-1/PD-L1 binding [1]: reduced the amounts of binding | Inhibitory activity against canine CD80/PD-L1 binding [2]: reduced the amounts of binding | IFN-γ production from canine PBMCs (canine PBMCs; 3 days, ELISA): increased | IL-2 production from canine PBMCs (canine PBMCs; 3 days, ELISA): increased | EdU uptake in canine CD4+ and CD8+ lymphocytes (cell proliferation) (canine PBMCs; EdU added at day 2, flow cytometry): enhanced | Criterion of PR (30% or more reduction in longest tumor diameter vs baseline) (oral melanoma; Clinical Trial 1): satisfied at weeks 16-20 and at week 34 and thereafter | Metastases to lymph nodes or the lung (oral melanoma; Clinical Trial 1, observation period of 44 weeks): no metastases to lymph nodes or the lung were observed | Pulmonary metastatic lesions at week 18 (oral melanoma; Clinical Trial 3, primary lesion removed by surgery, 2 or 5 mg/kg i.v. every 2 weeks, 9 times): a plurality of pulmonary metastatic lesions disappeared | Tumor size during observation period (oral melanoma; Clinical Trial 4, 4 dogs with pulmonary metastasis, 2 or 5 mg/kg i.v. every 2 weeks): no clear reduction in tumor size

From patent US11312773B2, “Anti-PD-L1 antibody” (Fuso Pharmaceutical Industries, Ltd., priority 2016, dated 2022)
